Consider 3 substances from patent US20250382354A1.

Experiment [1] deals with SARS-CoV-2 S ectodomain, ancestral (S-2P) (SARS-CoV-2) (UniProt P0DTC2). The experiment is described as follows: ELISA on coated S. Background: An ELISA detects its analyte on a solid surface through an enzyme-linked reagent.
Experiment [2] addresses SARS-CoV-2 S Ancestral (S-2P ectodomain) (SARS-CoV-2 (ancestral)) (UniProt P0DTC2). The experiment is described as follows: protein ELISA.
Experiment [3] concerns the target SARS-CoV-2 S ectodomain, ancestral (S-2P) (SARS-CoV-2) (UniProt P0DTC2).
Experiment [4] has the same target. The source holds these as a separate data set.

Where two headings read alike, the source gives them in different places.

Broadly, the EC50 is the concentration at which the effect is half-maximal. Read a high EC50 as a less potent agent. With S2P6 (antibody), in experiment [1], the EC50 is 0.0379 µg/mL.

In experiment [1], CV3-25 (antibody) had an EC50 of 0.0139 µg/mL.

In experiment [2], C121 (antibody) gave an EC50 of 0.0187 µg/mL. Moreover, the IC50 (read off the curve) in experiment [3] stood at 1 µg/mL; in experiment [4], 0.3 µg/mL.
